Results: patent US7125658B2, “Small protein that interacts with a ribonucleotide reductase subunit and uses thereof” (The Trustees of Columbia University in the City of New York, priority 1998, dated 2006)
Ends that are not written are not given here.

T1: Recombinant yeast Rnr1 protein (large subunit of ribonucleotide reductase) (yeast (Saccharomyces cerevisiae), UniProt P21524 1-888)
T1 sequence (looked up): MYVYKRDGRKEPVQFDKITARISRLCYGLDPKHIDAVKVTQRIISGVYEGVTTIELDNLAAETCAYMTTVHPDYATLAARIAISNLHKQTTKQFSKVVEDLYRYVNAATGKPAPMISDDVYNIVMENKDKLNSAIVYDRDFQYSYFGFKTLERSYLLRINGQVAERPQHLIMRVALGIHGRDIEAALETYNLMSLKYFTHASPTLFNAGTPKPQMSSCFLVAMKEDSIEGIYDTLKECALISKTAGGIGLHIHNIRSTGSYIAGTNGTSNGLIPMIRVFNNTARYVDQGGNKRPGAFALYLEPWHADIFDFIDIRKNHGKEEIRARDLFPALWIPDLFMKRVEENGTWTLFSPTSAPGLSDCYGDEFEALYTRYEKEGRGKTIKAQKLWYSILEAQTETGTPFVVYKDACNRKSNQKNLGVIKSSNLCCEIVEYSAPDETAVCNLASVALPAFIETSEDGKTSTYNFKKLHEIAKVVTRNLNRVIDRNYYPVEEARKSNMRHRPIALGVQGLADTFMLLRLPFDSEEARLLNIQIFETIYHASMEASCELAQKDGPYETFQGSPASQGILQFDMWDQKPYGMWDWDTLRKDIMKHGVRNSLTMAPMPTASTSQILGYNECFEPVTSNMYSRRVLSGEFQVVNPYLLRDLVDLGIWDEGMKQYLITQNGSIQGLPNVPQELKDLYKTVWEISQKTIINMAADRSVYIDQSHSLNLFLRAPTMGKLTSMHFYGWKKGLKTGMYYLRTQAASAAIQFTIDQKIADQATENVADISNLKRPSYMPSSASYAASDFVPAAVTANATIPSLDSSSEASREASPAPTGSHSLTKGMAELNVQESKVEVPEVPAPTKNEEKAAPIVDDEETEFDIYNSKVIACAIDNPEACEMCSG

T2: GAD-Rnr1 two-hybrid fusion (plasmid pWJ745) (yeast (Saccharomyces cerevisiae), UniProt P21524 1-888)
T2 sequence (looked up): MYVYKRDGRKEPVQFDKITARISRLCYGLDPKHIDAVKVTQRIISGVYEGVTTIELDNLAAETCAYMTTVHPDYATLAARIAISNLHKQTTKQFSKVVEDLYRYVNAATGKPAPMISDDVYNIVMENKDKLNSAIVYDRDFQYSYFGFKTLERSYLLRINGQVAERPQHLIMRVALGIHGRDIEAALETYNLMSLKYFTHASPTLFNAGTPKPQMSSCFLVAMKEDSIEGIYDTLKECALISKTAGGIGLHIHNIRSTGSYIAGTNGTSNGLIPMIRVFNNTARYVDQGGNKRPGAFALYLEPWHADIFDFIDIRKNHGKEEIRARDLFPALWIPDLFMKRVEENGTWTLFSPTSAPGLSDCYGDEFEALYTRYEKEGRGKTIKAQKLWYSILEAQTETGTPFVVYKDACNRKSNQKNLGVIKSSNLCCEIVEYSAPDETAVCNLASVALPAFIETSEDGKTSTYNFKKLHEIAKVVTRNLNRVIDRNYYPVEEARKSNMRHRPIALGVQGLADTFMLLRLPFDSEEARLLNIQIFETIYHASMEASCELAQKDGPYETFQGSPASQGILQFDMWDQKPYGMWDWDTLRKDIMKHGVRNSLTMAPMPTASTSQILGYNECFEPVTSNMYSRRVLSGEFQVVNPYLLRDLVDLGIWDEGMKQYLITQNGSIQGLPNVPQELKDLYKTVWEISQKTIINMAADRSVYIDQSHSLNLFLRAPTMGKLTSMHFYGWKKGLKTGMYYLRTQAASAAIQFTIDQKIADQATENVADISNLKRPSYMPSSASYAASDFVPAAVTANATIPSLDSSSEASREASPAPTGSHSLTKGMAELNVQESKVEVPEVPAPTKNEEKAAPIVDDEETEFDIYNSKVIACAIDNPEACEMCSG

T3: GAD-Sml1 two-hybrid fusion (plasmid pWJ684, pACTII) (Saccharomyces cerevisiae (yeast), UniProt Q04964 1-104)
T3 sequence: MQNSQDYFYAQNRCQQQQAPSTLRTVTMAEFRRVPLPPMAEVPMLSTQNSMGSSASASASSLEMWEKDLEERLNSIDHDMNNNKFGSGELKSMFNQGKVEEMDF

T4: GAD (Gal4 activation domain alone, empty vector control) (UniProt P04386 768-881)
T4 sequence (looked up): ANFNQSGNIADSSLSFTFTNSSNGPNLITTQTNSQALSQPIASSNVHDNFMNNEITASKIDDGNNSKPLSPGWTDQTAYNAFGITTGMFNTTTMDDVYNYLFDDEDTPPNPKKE


Experiments:
Assay in all cases: cell-based or functional assay
[1] = target: T1, Recombinant yeast Rnr1 protein (large …)
[2] = target: T2, GAD-Rnr1 two-hybrid fusion (plasmid …)
[3] = target: T3, GAD-Sml1 two-hybrid fusion (plasmid …)
[4] = target: T4, GAD (Gal4 activation domain alone, …)

| Binder | IC50, in vitro yeast RNR assay [1] | two-hybrid LacZ activity [2] | two-hybrid LacZ activity [3] | two-hybrid LacZ activity [4] |
| --- | --- | --- | --- | --- |
| Ac-KEINFDDDF [N-acetylated nonapeptide corresponding to the last 9 amino acids of Rnr4p] | 30 µM |  |  |  |
| Ac-QGKVEEMDF [N-acetylated nonapeptide corresponding to the last 9 amino acids of Sml1p] | ~300 µM |  |  |  |
| GBD-Rnr1 two-hybrid fusion (plasmid pWJ731) (other, UniProt P04386 1-147, looked up) MKLLSSIEQACDICRLKKLKCSKEKPKCAKCLKNNWECRYSPKTKRSPLTRAHLTEVESRLERLEQLFLLIFPREDLDMILKMDSLQDIKALLTGLFVQDNVNKDAVTDRLASVETDMPLTLRQHRISATSSSEESSNKGQRQLTVSMYVYKRDGRKEPVQFDKITARISRLCYGLDPKHIDAVKVTQRIISGVYEGVTTIELDNLAAETCAYMTTVHPDYATLAARIAISNLHKQTTKQFSKVVEDLYRYVNAATGKPAPMISDDVYNIVMENKDKLNSAIVYDRDFQYSYFGFKTLERSYLLRINGQVAERPQHLIMRVALGIHGRDIEAALETYNLMSLKYFTHASPTLFNAGTPKPQMSSCFLVAMKEDSIEGIYDTLKECALISKTAGGIGLHIHNIRSTGSYIAGTNGTSNGLIPMIRVFNNTARYVDQGGNKRPGAFALYLEPWHADIFDFIDIRKNHGKEEIRARDLFPALWIPDLFMKRVEENGTWTLFSPTSAPGLSDCYGDEFEALYTRYEKEGRGKTIKAQKLWYSILEAQTETGTPFVVYKDACNRKSNQKNLGVIKSSNLCCEIVEYSAPDETAVCNLASVALPAFIETSEDGKTSTYNFKKLHEIAKVVTRNLNRVIDRNYYPVEEARKSNMRHRPIALGVQGLADTFMLLRLPFDSEEARLLNIQIFETIYHASMEASCELAQKDGPYETFQGSPASQGILQFDMWDQKPYGMWDWDTLRKDIMKHGVRNSLTMAPMPTASTSQILGYNECFEPVTSNMYSRRVLSGEFQVVNPYLLRDLVDLGIWDEGMKQYLITQNGSIQGLPNVPQELKDLYKTVWEISQKTIINMAADRSVYIDQSHSLNLFLRAPTMGKLTSMHFYGWKKGLKTGMYYLRTQAASAAIQFTIDQKIADQATENVADISNLKRPSYMPSSASYAASDFVPAAVTANATIPSLDSSSEASREASPAPTGSHSLTKGMAELNVQESKVEVPEVPAPTKNEEKAAPIVDDEETEFDIYNSKVIACAIDNPEACEMCSG |  | 2.9 Miller Units | 85 Miller Units | 0.8 Miller Units |
| Ac-GAFTFNEDF [N-acetylated nonapeptide corresponding to the last 9 amino acids of Rnr2p] | 44 µM |  |  |  |
